Data reported in doi:10.1101/2025.08.11.669711 (2025).

Key:
[1] = target: T1, UCH37•RPN13^DEUBAD (UniProt Q16186 253-407); assay: MST
T1 chain 1: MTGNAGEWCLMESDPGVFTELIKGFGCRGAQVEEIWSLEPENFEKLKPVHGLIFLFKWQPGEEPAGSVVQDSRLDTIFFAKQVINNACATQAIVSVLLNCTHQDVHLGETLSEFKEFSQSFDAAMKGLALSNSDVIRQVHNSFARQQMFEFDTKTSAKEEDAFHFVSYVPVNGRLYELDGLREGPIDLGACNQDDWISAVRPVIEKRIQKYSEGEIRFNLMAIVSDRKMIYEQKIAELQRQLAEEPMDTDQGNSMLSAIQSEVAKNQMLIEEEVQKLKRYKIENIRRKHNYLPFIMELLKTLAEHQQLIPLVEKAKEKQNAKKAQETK
T1 chain 2: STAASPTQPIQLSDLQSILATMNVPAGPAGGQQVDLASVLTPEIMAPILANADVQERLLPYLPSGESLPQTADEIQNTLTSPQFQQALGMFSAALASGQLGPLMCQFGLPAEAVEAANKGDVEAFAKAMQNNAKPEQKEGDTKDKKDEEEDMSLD

[2] = target: T2, UCH37; assay: SPR
T2 chain: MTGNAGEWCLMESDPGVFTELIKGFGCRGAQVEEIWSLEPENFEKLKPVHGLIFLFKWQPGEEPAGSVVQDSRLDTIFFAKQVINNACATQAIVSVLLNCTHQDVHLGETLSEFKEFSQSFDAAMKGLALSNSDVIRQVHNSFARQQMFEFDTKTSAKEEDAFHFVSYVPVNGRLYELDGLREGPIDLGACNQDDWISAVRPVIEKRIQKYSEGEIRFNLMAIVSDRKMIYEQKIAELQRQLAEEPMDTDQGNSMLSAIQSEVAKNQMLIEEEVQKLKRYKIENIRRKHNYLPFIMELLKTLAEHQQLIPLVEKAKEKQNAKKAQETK

B1: Nb-cS1 (His-tagged) (VHH)
VHH: QVQLQESGGGLVQAGGSLRLSCAASGYISRPRTMGWYRQAPGKEREFVAIISNGAITNYADSVKGRFTISRDNAKNTVYLQMNSLKPEDTAVYYCAAGRNIWHAYWGQGTQVTVSS
Kd [1]: 199 nM

B2: Nb-ncS1 (His-tagged) (VHH)
VHH: RVQLQESGGGLVQAGGSLRLSCAASGYIFRSYRMGWYRQAPGKERELVAAIGLGGNTYYADSVKGRFTISRDNAKNTVYQQMNSLKPEDTAVYYCAALYGKPPAFSPFPYWGQGTQVTVSS
koff [2]: 3.9e-05 s⁻¹

B3: Nb-v1 (recombinant) (VHH)
VHH: QVQLQESGGGLVQAGGSLRLSCAASGYIFRSYRMGWYRQAPGKERELVAAIGLGGNTYYADSVKGRFTISRDNAKNTVYLQMNSLKPEDTAVYYCAALHGKPPAFSPFAYWGQGTQVTVSS
koff [2]: 0.00013 s⁻¹
